According to patent US10441669B2, “Multifunctional chelators, complexes, and compositions thereof, and methods of using same” (ILLINOIS INSTITUTE OF TECHNOLOGY, priority 2013, dated 2019):
Like-named read-outs stand apart in the source and are kept apart here.

How the values were obtained:
[1] = pH 7
Description: (§1) In vitro serum stability of 5p-C-NETA and NETA-RGD conjugates radiolabeled with ^90Y or ^177Lu was performed to determine if NETA chelators or NETA-RGD conjugates radiolabeled with ^90Y or ^177Lu remained stable without loss of ^90Y or ^177Lu in human serum. This was assessed by measuring the transfer of ^90Y or ^177Lu from the complex to serum proteins over the course of 14 days using ITLC. ^90Y or ^177Lu-radiolabeled complexes was prepared from the reactions of the bifunctional chelators with ^90Y or ^177Lu at room temperature and directly used for serum stability studies (37° C., pH 7).

[2] = parameters: species or system mice; details: mouse, in vivo
[3] = pH 7; remark: listed apart in the source
Description: as §1

[4] = In vitro serum stability of 90Y-radiolabeled 5p-C-NETA and NETA-RGD; details: 37° C., pH 7, 14 days, ITLC
Description: as §1

[5] = In vitro serum stability of 177Lu-radiolabeled 5p-C-NETA and NETA-RGD; details: 37° C., pH 7, 14 days, ITLC
Description: as §1

Row | Compound | stability of 90Y complex in human serum [1] | tumor targeting and biodistribution profile [2] | stability of 177Lu complex in human serum [3] | stability of 90Y complex in human serum [4] | stability of 177Lu complex in human serum [5]
1 | N=C(N)NCCC[C@@H]1NC(=O)[C@H](CCCCNC(=S)Nc2ccc(CCCCCC(CN3CCN(CC(=O)O)CCN(CC(=O)O)CC3)N(CC(=O)O)CC(=O)O)cc2)NC(=O)[C@@H](Cc2ccc(O)cc2)NC(=O)[C@H](CC(=O)O)NC(=O)CNC1=O (some centres unmarked) [5p-C-NETA-RGD] | remained quite stable in human serum over 2 weeks period | target tumors in mice and produced a favorable biodistribution profile with rapid blood clearance and low organ uptake | remained quite stable in human serum over 2 weeks period |  | 
2 | O=C(O)CN1CCN(CC(=O)O)CCN(CC(CCCCCc2ccc([N+](=O)[O-])cc2)N(CC(=O)O)CC(=O)O)CC1 (centres unmarked) [Chelator 5p-C-NETA, 2-({1-[4,7-bis(carboxymethyl)-1,4,7-triazonan-1-yl]-7-(4-nitrophenyl)heptan-2-yl}(carboxy-methyl)amino)acetic acid] |  |  |  | remained stable in human serum without releasing the radioactivity into the serum | remained stable in human serum without releasing the radioactivity into the serum
